The record followed here is patent US20240076330A1.

One assay concerns the target IFNGR1 (human) (UniProt P15260). In words: cell-based or functional assay.
The target of assay [1] is IL-6 receptor (IL6R) (human) (UniProt P08887). In words: cell-based or functional assay.
Chain of UniProt P08887 (P08887 20-468): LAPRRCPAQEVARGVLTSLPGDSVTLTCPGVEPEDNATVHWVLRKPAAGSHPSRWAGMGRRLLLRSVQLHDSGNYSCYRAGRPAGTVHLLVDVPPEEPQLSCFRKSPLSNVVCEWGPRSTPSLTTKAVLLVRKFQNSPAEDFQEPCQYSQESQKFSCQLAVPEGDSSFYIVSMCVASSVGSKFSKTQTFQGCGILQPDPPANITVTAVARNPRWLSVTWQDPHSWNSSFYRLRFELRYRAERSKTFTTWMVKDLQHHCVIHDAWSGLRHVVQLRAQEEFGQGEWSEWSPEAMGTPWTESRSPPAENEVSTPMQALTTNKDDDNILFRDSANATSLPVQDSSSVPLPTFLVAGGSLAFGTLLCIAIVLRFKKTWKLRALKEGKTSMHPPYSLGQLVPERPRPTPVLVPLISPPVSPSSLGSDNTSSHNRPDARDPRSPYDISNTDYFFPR

Chain of UniProt P15260 (P15260 18-489): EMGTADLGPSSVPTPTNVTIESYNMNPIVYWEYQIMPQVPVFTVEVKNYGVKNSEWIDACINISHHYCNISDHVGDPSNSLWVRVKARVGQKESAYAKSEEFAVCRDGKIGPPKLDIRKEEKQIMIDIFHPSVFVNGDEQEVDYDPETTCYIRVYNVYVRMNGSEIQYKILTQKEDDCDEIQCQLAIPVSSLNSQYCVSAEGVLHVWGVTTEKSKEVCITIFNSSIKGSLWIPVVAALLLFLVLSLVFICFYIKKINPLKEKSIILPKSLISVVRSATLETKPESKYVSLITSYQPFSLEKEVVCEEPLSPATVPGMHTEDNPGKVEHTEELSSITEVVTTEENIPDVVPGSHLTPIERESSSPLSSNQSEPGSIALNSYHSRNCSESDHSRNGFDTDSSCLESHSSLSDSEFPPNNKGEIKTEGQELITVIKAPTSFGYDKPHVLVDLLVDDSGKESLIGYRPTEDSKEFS

In the assay with IFNGR1 (human), “IFNγ (from UniProt P01579 24-166) (ligand)” showed a pSTAT1 levels after IFNγ in THP1-Cas9 cells with gRNAs targeting IFNGR1 (fold decrease) of 15 and a percent of cells with increased pSTAT1 after IFNγ, clusters with gRNAs targeting IFNGR1 of 25%.

In assay [1], “IL-6 (from UniProt P05231 30-212) (ligand)” had a pSTAT1 levels after IL-6 in THP1-Cas9 cells with gRNAs targeting IL6R (fold reduction) of 2 and a pSTAT3 levels after IL-6 in THP1-Cas9 cells with gRNAs targeting IL6R (fold reduction) of 2.
